Test results reported in US20110212091.

Key:
[1] = tested on: FGFR4 G388, V5-His tagged (FGFR4G388-V5-His)
[2] = tested on: FGFR4 R388, V5-His tagged (FGFR4R388-V5-His)

With HA-tagged MT1-MMP the MT1-MMP tyrosine phosphorylation [1] was “repeatedly detected” and the MT1-MMP tyrosine phosphorylation [2] was “repeatedly detected”.
